Reference: patent publication US20050058639A1 (AstraZeneca / MedImmune, published 2005)

T1: recombinant human MCP-2 (human, UniProt P80075 24-99)
T1 construct: also called rhMCP-2
T1 sequence (looked up): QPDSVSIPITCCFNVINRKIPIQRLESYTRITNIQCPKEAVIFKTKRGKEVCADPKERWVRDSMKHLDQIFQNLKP

T2: human MIP-1-alpha (human, UniProt P10147 24-92, limits assumed)
T2 construct: also called hMIP-1-alpha
T2 sequence (looked up): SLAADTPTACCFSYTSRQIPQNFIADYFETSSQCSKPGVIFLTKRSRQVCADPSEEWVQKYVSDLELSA

T3: human GRO/MGSA (human, UniProt P09341 35-107)
T3 construct: also called hGRO/MGSA; GRO-alpha
T3 sequence (looked up): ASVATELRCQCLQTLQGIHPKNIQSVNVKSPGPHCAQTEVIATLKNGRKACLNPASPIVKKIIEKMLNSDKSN

T4: human RANTES (human, UniProt P13501 24-91)
T4 construct: also called hRANTES
T4 sequence (looked up): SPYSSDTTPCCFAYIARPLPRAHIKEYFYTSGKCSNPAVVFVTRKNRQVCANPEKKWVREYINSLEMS


How the values were obtained:
[1] = target: T5, recombinant mouse JE/MCP-1 (mouse, UniProt P10148 24-148); test: ELISA, coated antigen
T5 construct: also called rmJE/MCP-1
Method: (§1) Determining cross-reactivity of anti-MCP-1 antibodies with other chemokines. ELISA plates (Fisher Cat. No. 12-565-136) were coated with 50 μl/well of MCP-1, MCP-2, MCP-3, MCP-4, RANTES, GRO-alpha, MIP-1 alpha, eotaxin, rat MCP-1 and mouse JE (2 μg/ml) in coating buffer (0.1 M carbonate buffer, pH 9.6, NaHCO₃ 8.4 g/L, then incubated at 4° C. overnight. After incubation, the plates were washed with washing buffer (0.05% Tween 20 in PBS) three times. 200 μL/well blocking buffer (0.5% BSA, 0.1% Tween 20, 0.01% Thimerosal in 1×PBS) were added and the plates incubated at room temperature for 1 hour. After incubation, the plates were washed with washing buffer three times. 50 μL/well of hybridoma supernatants, and positive and negative controls (positive control was anti-MCP-1 antibody purchased from R&D Sciences, and negative control was an antibody to Keyhole Limpet Hemocyanin produced at Abgenix) were added and the plates incubated at room temperature for 2 hours. After incubation, the plates were washed three times with washing buffer. […] After incubation, the plates were washed three times with washing buffer and 100 μL/well of TMB (BioFX Lab. Cat. #TMSK-0 100-01) was added and the plates allowed to develop for about 10 minutes.

recombinant human MCP-2 = target: T1, recombinant human MCP-2; test: ELISA, coated antigen
Method: as §1

recombinant human MCP-4 = target: T6, recombinant human MCP-4 (human, UniProt Q99616 24-98, limits assumed); test: ELISA, coated antigen
T6 construct: also called rhMCP-4
Method: as §1

recombinant human MCP-3 = target: T7, recombinant human MCP-3 (human, UniProt P80098 24-99); test: ELISA, coated antigen
T7 construct: also called rhMCP-3
Method: as §1

human eotaxin = target: T8, human eotaxin (human, UniProt P51671 24-97); test: ELISA, coated antigen
T8 construct: also called hEotaxin
Method: as §1

[2] = target: T9, human monocyte chemo-attractant protein-1 (MCP-1) (human, UniProt P13500 24-99); test: ELISA, coated antigen
T9 construct: 76-residue recombinant protein from E. coli, bought (PeproTech); also called hMCP-1(MCAF); human MCP-1
Method: as §1

human MIP-1-alpha = target: T2, human MIP-1-alpha; test: ELISA, coated antigen
Method: as §1

human GRO/MGSA = target: T3, human GRO/MGSA; test: ELISA, coated antigen
Method: as §1

human RANTES = target: T4, human RANTES; test: ELISA, coated antigen
Method: as §1

rat MCP-1 = rat MCP-1 (rat, UniProt P14844 24-148); test: ELISA, coated antigen
Method: as §1

[3] = target: T9, human monocyte chemo-attractant …; test: ELISA, hybridoma supernatant on coated MCP-1
Method: (§2) Selection of candidate antibodies for ELISA. After 14 days of culture, hybridoma supernatants were screened for MCP-1-specific monoclonal antibodies. The ELISA plates (Fisher, Cat. No. 12-565-136) were coated with 50 μl/well of MCP-1 (2 μg/mL) in Coating Buffer (0.1 M Carbonate Buffer, pH 9.6, NaHCO₃8.4 g/L), then incubated at 4° C. overnight. After incubation, the plates were washed with Washing Buffer (0.05% Tween 20 in PBS) three times. 200 μl/well Blocking Buffer (0.5% BSA, 0.1% Tween 20, 0.01% Thimerosal in 1× PBS) were added and the plates incubated at room temperature for 1 hour. After incubation, the plates were washed with Washing Buffer three times. 50 μL/well of hybridoma supernatants, and positive and negative controls were added and the plates incubated at room temperature for 2 hours.
(§3) The positive control used throughout was XMG2 MCP-1 Group 1, footpad N160-7 and the negative control was XMG2 KLH Group 1, footpad L627-6. After incubation, the plates were washed three times with Washing Buffer. […] In the secondary screen, three sets of samples (positives in first screening) were screened, one set for hIgG detection, one set for hKappa detection, and one set for hlambda detection. After incubation, the plates were washed three times with Washing Buffer. 100 μL/well of TMB (BioFX Lab. Cat. #TMSK-0100-01) were added and the plates allowed to develop for about 10 minutes (until negative control wells barely started to show color), then 50 μL/well stop solution (TMB Stop Solution (BioFX Lab. Cat. #STPR-0100-01) were added and the plates read on an ELISA plate reader at wavelength 450 nm. The OD readings from the positive wells are presented in Table 9.

[4] = target: T9, human monocyte chemo-attractant …; test: cell-based or functional assay
[5] = target: T9, human monocyte chemo-attractant …; test: ELISA, hybridoma supernatant on coated MCP-1; ELISA, hybridoma supernatant on plate-coated non-reduced MCP-1 (2 ug/mL)
Method: as §2, §3

[6] = target: T9, human monocyte chemo-attractant …; test: ELISA, coated antigen; ELISA, purified clone 1:50 on coated hMCP-1 (2 ug/mL), cross-reactivity panel
Method: as §1

[7] = target: T9, human monocyte chemo-attractant …; test: Biacore, mAb immobilized, MCP-1 injected; Biacore, 25 C, native MCP-1 injected over immobilized mAb
Method: Determination of anti-MCP-1 antibody affinity using Biacore analysis. The antibody/MCP-1 interaction analysis was performed at 25° C. using two CM5 chips docked in Biacore 3000 optical biosensors. Individual flow cells on each chip were activated with a 7-minute injection of NHS/EDC, carbohydrazide was coupled through the NHS ester using a 7-minute injection, and the residual activated groups were blocked with a 7-minute injection of ethanolamine. The monosaccharide residues of each antibody were oxidized using 1 mM sodium metaperiodate in 100 mM sodium acetate, pH 5.5 at 4° C. for 30 minutes. The oxidized antibody was desalted into 100 mM sodium acetate, pH 5.0, to couple the antibody to the carbohydrazide-modified surface. The mAb surfaces were stabilized by reducing the hydrazone bond with 0.1 M sodium cyanoborohydride. The antigen/antibody interaction was tested by injecting 0, 0.049, 0.15, 0.4, 1.3, 4 and 12 nM of MCP-1 (Peprotech, N.J.) in running buffer (10 mM HEPES, 150 mM NaCl, 0.005% surfactant, 200 μg/ml BSA, pH 7.4). The surfaces were regenerated with a 12-second pulse of 15 mM H₃PO₄. The antigen/antibody interaction was tested by injecting duplicate antigen samples diluted in running buffer (10 mM HEPES, […], 0.005% surfactant, 200 μg/mL BSA, pH 7.4), in a 300-fold concentration range. The surfaces were regenerated with a 12-second pulse of 15 mM H₃PO₄. To determine the kinetics of each interaction, the data sets were fit globally to a 1:1 interaction model that included a parameter for mass transport.

T6 sequence (Q99616 24-98 limits assumed): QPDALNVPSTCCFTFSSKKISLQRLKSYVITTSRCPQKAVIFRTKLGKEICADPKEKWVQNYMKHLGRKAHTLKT
T9 sequence (P13500 24-99): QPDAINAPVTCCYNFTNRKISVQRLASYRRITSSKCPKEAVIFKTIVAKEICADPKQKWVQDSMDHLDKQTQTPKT
T7 sequence (P80098 24-99 limits assumed): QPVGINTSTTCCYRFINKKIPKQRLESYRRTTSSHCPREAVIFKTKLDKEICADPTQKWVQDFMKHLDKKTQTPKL
T8 sequence (P51671 24-97 limits assumed): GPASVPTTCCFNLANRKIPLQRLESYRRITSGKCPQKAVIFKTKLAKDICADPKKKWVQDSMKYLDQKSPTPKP
Chain of rat MCP-1 (P14844 24-148 limits assumed): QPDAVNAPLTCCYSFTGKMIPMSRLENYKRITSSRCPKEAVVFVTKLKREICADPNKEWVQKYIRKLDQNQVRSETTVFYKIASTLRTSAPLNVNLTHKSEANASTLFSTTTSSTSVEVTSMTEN
T5 sequence (P10148 24-148 limits assumed): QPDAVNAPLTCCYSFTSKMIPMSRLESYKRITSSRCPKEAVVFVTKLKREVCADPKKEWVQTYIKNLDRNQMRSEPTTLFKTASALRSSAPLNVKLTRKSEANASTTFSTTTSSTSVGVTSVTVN

Binder	ELISA OD [1] [OD450]	ELISA OD (recombinant human MCP-2) [OD450]	ELISA OD (recombinant human MCP-4) [OD450]	ELISA OD (recombinant human MCP-3) [OD450]	ELISA OD (human eotaxin) [OD450]	ELISA OD [2] [OD450]	ELISA OD (human MIP-1-alpha) [OD450]	ELISA OD (human GRO/MGSA) [OD450]	ELISA OD (human RANTES) [OD450]	ELISA OD (rat MCP-1) [OD450]	ELISA OD-MCP-1 [3] [OD450]	IC50 Ca++ Flux [4] [µg/mL]	IC50 Chemotaxis [4] [µg/mL]	ELISA OD-MCP-1 [5] [OD450]	ELISA OD [6] [OD450]	Kd [7] [pM]
anti-MCP-1 mAb 1.4.1 (antibody, V domains shown) VH: QSGPGLVKPSQTLSLTCAISGDSVSSNSAAWNWIRQSPSRGLEWLGRTYYRSKWYSDHAVSVRSRITIYPDTSKNQFSLQLNSVTPEDTAVYYCARDRISGTYVGMDVWGQGTTVTVSS VL: DIGMTQTPLSLSVTPGQPASISCKSSQSLLYSDGKTYLYWYLQKPGQPPQHLIYEVSNRFSGVPDRFSGSGSGTDFTLKISRVEADDVGVYYCMQTIHLPLTFGGGTKVEIQR	0.042	0.046	0.045	0.049	0.043	0.738	0.041	0.044	0.046	0.05	4	0.11	0.51			
anti-MCP-1 mAb 1.7.1 (antibody, human IgG2, kappa, V domains shown, also called 1.7.2) VH: QVQLVQSGAEVKKPGASVKVSCKVSGYTLTELSMHWVRQAPGKGLEWMGGFDPEDGETIYAQKFQGRVSMTEDTSTDTAYMELSSLRSEDTAVYFCATNEFWSGYFDYWGQGTLVTVSS VL: not shown	0.041	0.044	0.041	0.053	0.04		0.04	0.041	0.039	0.042		0.11	0.35	3.52	1.17	4.9
anti-MCP-1 mAb 4.7.1 (antibody, V domains shown) VH: QVQLVQSGAEVKKPGASVKVSCKVSGYTLTELSMHWVRQAPGKGLEWMGGFDPEDGETIYAQKFQGRVTMTEDTSTDTAYMELSSLRSEDTAVYYCATDDFWSGYFDYWGQGTLVTVSS VL: not shown	0.042	0.042	0.044	0.046	0.042	0.744	0.046	0.046	0.046	0.062	3.84	0.39	0.45			
